Experimental data reported in patent US20250076311A1 (Chugai, published 2025).
Changes are numbered by the printed parent chain.

Legend:
[1] = target: T1, Human latent myostatin (human, UniProt O14793 25-266; O14793 267-375); assay: ELISA: biotinylated antigen (4 nM) on streptavidin-coated plate, antibody titrated, anti-human IgG-HRP, ABTS, OD405
T1 construct: Biotinylated in the ELISAs; also called human myostatin latent form
T1 sequence 1: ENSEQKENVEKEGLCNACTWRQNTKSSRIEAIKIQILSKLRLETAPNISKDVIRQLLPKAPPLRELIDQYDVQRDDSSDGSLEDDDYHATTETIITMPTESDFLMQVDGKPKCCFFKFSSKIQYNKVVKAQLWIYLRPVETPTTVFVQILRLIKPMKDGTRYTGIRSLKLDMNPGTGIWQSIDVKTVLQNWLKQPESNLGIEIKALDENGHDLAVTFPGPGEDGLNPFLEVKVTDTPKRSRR
T1 sequence 2: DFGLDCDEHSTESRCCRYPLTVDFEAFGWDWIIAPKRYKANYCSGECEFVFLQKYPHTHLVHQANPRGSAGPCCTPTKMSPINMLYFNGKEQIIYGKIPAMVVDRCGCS
Method: (§1) Uncoated ELISA plates (NUNC-IMMUNO plate MAXISORP surface, Nalge Nunc International) were coated with 20 μL of 50 nM streptavidin (GenScript) for 1 hour at room temperature. Plates were then washed with PBST three times and blocked with 50 μL 20% Blocking One (Nacalai Tesque) overnight. On the next day, each well of each plate was incubated with biotinylated mature myostatin, human or mouse biotinylated latent myostatin, or biotinylated recombinant mouse myostatin propeptide-Fc chimera protein (R&D Systems) at 4 nM/well/20 μL for 2 hours. After washing, 20 μL of antibody sample was added to the wells and the plates were left for 1 hour. The plates were washed and 20 μL of anti-human IgG-horseradish peroxidase (HRP) (Abcam) diluted in HEPES-buffered saline was added, and the plates were left for another hour. The plates were then washed again, and then 50 μL ABTS (KPL) was added to each well, and the plates were incubated for 1 hour.

[2] = target: T2, Mouse latent myostatin (mouse, UniProt O08689 26-267; O08689 268-376, limits assumed); assay: as above
T2 sequence 1: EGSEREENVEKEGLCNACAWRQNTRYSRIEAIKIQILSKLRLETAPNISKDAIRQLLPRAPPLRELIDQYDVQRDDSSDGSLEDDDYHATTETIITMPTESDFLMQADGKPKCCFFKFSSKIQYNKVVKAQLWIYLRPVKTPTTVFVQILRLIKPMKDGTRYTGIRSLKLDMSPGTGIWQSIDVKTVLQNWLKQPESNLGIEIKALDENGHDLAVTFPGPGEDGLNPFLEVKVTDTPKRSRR
T2 sequence 2: T1 sequence 2
Method: as §1

[3] = target: T3, Mature myostatin (human, UniProt O14793 267-375); assay: as above
T3 construct: Disulfide-bonded homodimer; Biotinylated in the ELISA; also called human myostatin mature form; active myostatin
T3 sequence: T1 sequence 2
Method: as §1

[4] = target: T1, Human latent myostatin; assay: ELISA: biotinylated human latent myostatin (2 nM) on streptavidin-coated plate, antibody titrated, anti-human IgG-HRP, ABTS, OD405
Method: Uncoated ELISA plates (NUNC-IMMUNO plate MAXISORP™ surface, Nalge Nunc International) were coated with 20 μL of 50 nM streptavidin (GenScript) for 2 hour at room temperature. Plates were then washed with PBST three times and blocked with 50 μL 20% Blocking One (Nacalai Tesque) for overnight. On the next day, each well of the plates was incubated with biotinylated human latent myostatin at 2 nM/well/20 μL or biotinylated human latent GDF11 at 20 nM/well/20 μL for 2 hours. After washing, 20 μL of antibody sample was added to the wells and the plates were left for 1 hour. The plates were washed and 20 μL of anti-human IgG-horseradish peroxidase (HRP) (Abcam) diluted in HEPES-buffered saline was added, and the plates were left for another hour. The wells were washed again, and then 50 μL ABTS (KPL) was added to each well, and the plates were incubated for 1 hour.

[5] = target: T4, cynomolgus monkey FcγRIIb extracellular domain, His-tagged (cynomolgus monkey); assay: SPR Biacore, antibody captured, FcgR analyte
T4 construct: also called cyno FcγRIIb; cynoFcγRIIb; not shown: C-terminal His-tag
T4 chain: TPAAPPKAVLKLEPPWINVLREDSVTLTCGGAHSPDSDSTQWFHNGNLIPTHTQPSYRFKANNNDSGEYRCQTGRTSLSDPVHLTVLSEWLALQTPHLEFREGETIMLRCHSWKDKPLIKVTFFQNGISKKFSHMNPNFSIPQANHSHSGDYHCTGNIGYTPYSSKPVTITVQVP

[6] = target: T5, cynomolgus monkey FcγRIIa2 extracellular domain, His-tagged (cynomolgus monkey); assay: SPR Biacore, KD(SG1)/KD(variant)
T5 construct: also called cyno FcγRIIa2; cynoFcgRIIa2; not shown: C-terminal His-tag
T5 chain: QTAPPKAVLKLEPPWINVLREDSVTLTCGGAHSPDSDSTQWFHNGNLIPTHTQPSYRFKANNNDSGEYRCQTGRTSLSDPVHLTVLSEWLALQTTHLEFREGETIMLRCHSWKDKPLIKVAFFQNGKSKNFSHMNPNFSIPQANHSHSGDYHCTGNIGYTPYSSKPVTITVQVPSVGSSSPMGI

[7] = target: T6, cynomolgus monkey FcγRIIa3 extracellular domain, His-tagged (cynomolgus monkey); assay: SPR Biacore, KD(SG1)/KD(variant)
T6 construct: also called cyno FcγRIIa3; cynoFcgRIIa3; not shown: C-terminal His-tag
T6 chain: T5 chain with K127I, N130K, H133P, Q142R

[8] = target: T7, human FcγRIIaR extracellular domain, His-tagged (human, UniProt P12318 34-217); assay: SPR Biacore, KD(SG1)/KD(variant)
T7 construct: also called human FcγRIIa (type R); FcgRIIaR; not shown: C-terminal His-tag
T7 chain: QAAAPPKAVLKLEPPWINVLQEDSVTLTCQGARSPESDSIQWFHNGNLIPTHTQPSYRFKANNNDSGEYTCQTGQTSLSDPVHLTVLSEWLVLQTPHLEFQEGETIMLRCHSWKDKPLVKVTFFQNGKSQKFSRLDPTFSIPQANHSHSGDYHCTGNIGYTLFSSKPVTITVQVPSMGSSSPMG

[9] = target: T8, human FcγRIIb extracellular domain, His-tagged (human, UniProt P31994 43-217); assay: SPR Biacore, KD(SG1)/KD(variant)
T8 construct: also called FcgRIIb (human); not shown: C-terminal His-tag
T8 sequence: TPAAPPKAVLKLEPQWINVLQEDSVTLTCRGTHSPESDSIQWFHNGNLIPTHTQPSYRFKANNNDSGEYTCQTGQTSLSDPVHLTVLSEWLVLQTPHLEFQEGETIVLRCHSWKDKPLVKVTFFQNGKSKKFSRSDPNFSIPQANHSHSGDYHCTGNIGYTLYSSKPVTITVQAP

[10] = target: T9, human FcγRIIIaV extracellular domain, His-tagged (human, UniProt P08637 17-208); assay: SPR Biacore, antibody captured, FcgR analyte
T9 construct: also called FcgRIIIaV; not shown: C-terminal His-tag

[11] = target: T5, cynomolgus monkey FcγRIIa2 …; assay: SPR Biacore, antibody captured, FcgR analyte
[12] = target: T10, human FcγRIIaH extracellular domain, C-terminal His-tag (human, UniProt P12318 34-217); assay: SPR, anti-kappa capture; KD(SG1)/KD(variant)
T10 construct: also called FcgRIIaH; human FcγRIIa (type H)
T10 sequence: T7 chain with R134H

T9 sequence (P08637 17-208 F176V): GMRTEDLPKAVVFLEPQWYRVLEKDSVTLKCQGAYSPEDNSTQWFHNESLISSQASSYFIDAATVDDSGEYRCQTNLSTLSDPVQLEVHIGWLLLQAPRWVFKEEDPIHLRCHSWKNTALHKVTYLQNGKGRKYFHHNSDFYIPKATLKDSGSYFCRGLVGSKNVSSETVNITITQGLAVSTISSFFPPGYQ

B1: MS_MST1032Ha-G1m/MST1032La-k0MC (antibody, human IgG1, kappa, V domains shown)
VH: QSLEESGGRLVTPGGSLTVTCRVSGIDLSSYDISWVRQAPGKGLEWIGIISYAGSTYYASWAKGRFTISKTSTTVDLKMTSLTTEDTATYFCARGVPAYSTGGDLWGPGTLVTVSS
VL: AQVLTQTASSVSAAVGGTVTINCQSSQSVYDNNWLSWFQQKPGQPPKLLIYWASTLASGVPSRFKGSGSGTQFTLTISDLECDDAATYYCAGGYGGGLYAFGGGTKVEIKR
notes: Rabbit/human chimeric antibody; also called MST1032-G1m
**Q.** For B1, which “EC50 (read off the curve)” value [1] is on record?
**A.** Its value is about 0.008 mg/L.

**Q.** What about the “EC50 (read off the curve)” value [2] of the same binder?
**A.** The value was about 0.01 mg/L.

**Q.** Does B1 bind [3]?
**A.** Result: no binding (tested: 10 ng/µL (log 1))

**Q.** What about the “EC50 (read off the curve)” value [4] of the same binder?
**A.** The value was about 0.02 mg/L.

B2: M103205H795-MY015/M103202L889-SK1 (antibody, human IgG1, kappa, name in EU numbering)
heavy: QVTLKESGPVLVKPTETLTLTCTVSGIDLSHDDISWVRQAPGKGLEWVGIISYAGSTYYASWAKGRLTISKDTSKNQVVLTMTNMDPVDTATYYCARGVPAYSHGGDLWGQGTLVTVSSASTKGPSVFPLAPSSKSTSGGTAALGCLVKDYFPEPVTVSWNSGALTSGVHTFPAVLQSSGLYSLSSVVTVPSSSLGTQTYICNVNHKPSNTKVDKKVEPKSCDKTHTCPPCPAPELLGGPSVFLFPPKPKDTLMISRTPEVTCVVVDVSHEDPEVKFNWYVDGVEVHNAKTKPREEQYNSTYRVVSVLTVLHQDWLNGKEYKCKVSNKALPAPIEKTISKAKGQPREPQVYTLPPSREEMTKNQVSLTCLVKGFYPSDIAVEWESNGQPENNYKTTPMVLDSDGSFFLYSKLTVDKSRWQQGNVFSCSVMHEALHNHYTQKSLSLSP
light: DIVMTQSPATLSLSPGERATLSCTSSQSVYHANWLSWFQQKPGQPPKLLIYWASTLAYGVPSRFSGSGSGTDFTLTISSLQPEDAATYYCAGGYGGGRYAFGQGTKVEIKRTVAAPSVFIFPPSDEQLKSGTASVVCLLNNFYPREAKVQWKVDNALQSGNSQESVTEQDSKDSTYSLSSTLTLSKADYEKHKVYACEVTHQGLSSPVTKSFNRGEC
notes: Substitution introduced into M103205H795-SG1; EU numbering
**Q.** Which Kd [5] does the source give for B2 here?
**A.** The Kd was 0.6 µM.

B3: M103205H795-MY017/M103202L889-SK1 (antibody, human IgG1, kappa, name in EU numbering)
heavy: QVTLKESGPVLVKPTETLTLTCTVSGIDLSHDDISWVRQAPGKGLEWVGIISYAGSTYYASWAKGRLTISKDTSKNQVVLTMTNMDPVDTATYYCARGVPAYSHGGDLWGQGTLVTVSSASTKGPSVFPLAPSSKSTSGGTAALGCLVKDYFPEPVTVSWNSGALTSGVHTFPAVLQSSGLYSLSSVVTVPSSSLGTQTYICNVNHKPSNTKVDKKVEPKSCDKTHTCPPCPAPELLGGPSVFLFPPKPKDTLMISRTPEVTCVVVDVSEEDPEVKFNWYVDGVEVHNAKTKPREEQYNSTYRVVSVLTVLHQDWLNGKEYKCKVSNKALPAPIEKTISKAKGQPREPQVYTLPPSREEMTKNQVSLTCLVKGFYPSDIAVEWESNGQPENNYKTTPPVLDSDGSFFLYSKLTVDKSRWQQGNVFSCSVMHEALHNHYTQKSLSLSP
light: B2 light
notes: as for B2
**Q.** For B3, which “KD fold (SG1 = 1)” value [6] is on record?
**A.** Its value is 1.6 fold.

**Q.** What about the “KD fold (SG1 = 1)” value [7] of the same binder?
**A.** The value was 3.1 fold.

**Q.** What about the “KD fold (SG1 = 1)” value [8] of the same binder?
**A.** The value was 3.9 fold.

**Q.** What about the “KD fold (SG1 = 1)” value [9] of the same binder?
**A.** Its value is 4.5 fold.

**Q.** And the Kd [5]?
**A.** The Kd was 0.68 µM.

B4: M103205H795-MY038/M103202L889-SK1 (antibody, human IgG1, kappa, name in EU numbering)
heavy: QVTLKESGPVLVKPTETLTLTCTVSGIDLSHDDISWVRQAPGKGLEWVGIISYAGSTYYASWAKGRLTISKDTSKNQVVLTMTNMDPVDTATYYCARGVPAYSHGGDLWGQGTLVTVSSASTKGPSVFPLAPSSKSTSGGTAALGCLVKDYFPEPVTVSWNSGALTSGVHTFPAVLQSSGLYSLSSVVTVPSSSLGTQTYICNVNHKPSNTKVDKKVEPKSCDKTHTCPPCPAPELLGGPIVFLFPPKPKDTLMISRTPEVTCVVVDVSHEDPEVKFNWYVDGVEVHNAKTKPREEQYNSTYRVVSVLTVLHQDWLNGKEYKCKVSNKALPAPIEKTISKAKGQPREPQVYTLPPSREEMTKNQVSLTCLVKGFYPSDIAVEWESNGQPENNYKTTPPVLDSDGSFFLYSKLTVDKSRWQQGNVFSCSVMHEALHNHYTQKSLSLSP
light: B2 light
notes: as for B2
**Q.** How did the Kd [10] turn out when B4 was run?
**A.** The Kd was 0.55 µM.

B5: M103205H795-MY043/M103202L889-SK1 (antibody, human IgG1, kappa, name in EU numbering)
heavy: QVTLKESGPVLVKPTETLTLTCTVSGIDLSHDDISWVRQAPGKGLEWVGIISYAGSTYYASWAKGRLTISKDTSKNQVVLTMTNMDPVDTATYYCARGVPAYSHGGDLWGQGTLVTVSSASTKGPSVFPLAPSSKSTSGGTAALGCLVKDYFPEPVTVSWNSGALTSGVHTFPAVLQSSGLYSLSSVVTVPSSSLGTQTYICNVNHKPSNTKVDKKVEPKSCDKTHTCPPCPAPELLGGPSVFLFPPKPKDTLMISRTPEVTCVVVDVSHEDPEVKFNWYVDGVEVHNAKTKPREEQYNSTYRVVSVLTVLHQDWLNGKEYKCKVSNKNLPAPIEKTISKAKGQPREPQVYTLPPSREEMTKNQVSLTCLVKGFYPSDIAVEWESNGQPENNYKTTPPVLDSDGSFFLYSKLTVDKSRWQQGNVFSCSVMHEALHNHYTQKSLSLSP
light: B2 light
notes: as for B2
**Q.** For B5, which “KD fold (SG1 = 1)” value [7] is on record?
**A.** The value was 0.5 fold.

**Q.** What about the Kd [11] of the same binder?
**A.** Its Kd is 6.1 µM.

**Q.** And the Kd [10]?
**A.** The Kd was 1.2 µM.

B6: MS103240H795-TT68/M103202L1045-SK1 (antibody)
heavy: QVQLVESGGGLVQPGGSLRLSCAVSGIDLSHDDISWVRQAPGKGLEWVSIISYAGSTYYASWAKGRLTISKDTSKNQVVLTMTNMDPVDTATYYCARGVPAYSHGGDLWGQGTLVTVSSASTKGPSVFPLAPSSKSTSGGTAALGCLVKDYFPEPVTVSWNSGALTSGVHTFPAVLQSSGLYSLSSVVTVPSSSLGTQTYICNVNHKPSNTKVDKKVEPKSCDKTHTCPPCPAPELLGGDSVFLFPPKPKDVLMISRTPEVTCVVVDVSHEDPEVKFNWYVDGVEVHNAKTKPREEQYNSTYRVVSVLPVLHRDWLNGKEYKCKVSNKALPKPIEKTISKAKGQPREPQVYTLPPSREEMTKNQVSLTCLVKGFYPSDIAVEWESNGQPENNYKTTPPVLDSDGSFFLYSKLTVKKSRWQQGNVFSCSVMHEALHAHYTRKELSLSP
light: B2 light with S25T, A32E
notes: copies: 2 + 2
**Q.** Which “KD fold (SG1 = 1)” value [12] does the source give for B6 here?
**A.** The value was 0.006 fold.

B7: MS103240H795-TT91/M103202L1045-SK1 (antibody)
heavy: B6 heavy with L236Y, V266I, P345R, K415D, M430L, Y438T
light: B2 light with S25T, A32E
**Q.** B7 was tested. Which “KD fold (SG1 = 1)” value [12] did it give?
**A.** The value was 0.02 fold.
